Like-named read-outs stand apart in the source and are kept apart here. Starred links: 1 amine or outer side, 2 acyl side, 3 side chain; linkers in the order of their positions; H or OH if unused. Positions of bridges follow the written chain, without caps; N, C: chain ends. Non-standard residues stand in square brackets, D forms with d. Residues, ends and D or L forms follow the SMILES beside them. Primed or numbered codes have the meaning given here. *: point of attachment. FITC = O=C1OC2(c3ccc(O)cc3Oc3cc(O)ccc32)c2ccc(NC(=S)*)cc21; FITC″ = Lys(FITC) = N6-fluorescein-thiocarbamoyl-L-lysine; Trimesoyl = O=C(c1cc(C(=O)[*:2])cc(C(=O)[*:3])c1)[*:1]; NH(1S,2S-2-CONH2-cPent) = NC(=O)[C@H]1CCC[C@@H]1N*; trimesoyl″ = benzene-1,3,5-tricarbonyl scaffold; FITC′ = fluorescein isothiocyanate, on Lys NZ; trimesoyl = benzene-1,3,5-tricarbonyl; β3hV = CC(C)[C@H](N)CC(=O)O; 3Abz = Nc1cccc(C(=O)O)c1; Nle = CCCC[C@H](N)C(=O)O; Dap = NC[C@H](N)C(=O)O; βAla = NCCC(=O)O; Sar = CNCC(=O)O
Assays:
TNFα-TNFR1 interaction = target: T1, TNFα-TNFR1 interaction (Homo sapiens, UniProt P01375); experiment: ELISA inhibition of TNFα-TNFR1 interaction (immobilized biotinylated TNFα, TNFR1-HRP); type: binding
T1 construct: made in house; host or cells: Escherichia coli (TNFα)
Protocol: Inhibition of TNFα-TNRF1 interaction by ELISA was carried out as previously described (Lian, W.; et al., supra).
Because of its high-throughput capability, FA analysis had been used to generate all of the SAR data described above. […] To confirm the SAR data obtained by FA analysis, some of the compounds in Table 5 (as well as new compounds) were resynthesized without the Lys(FITC) label and employed a more sensitive ELISA-based assay to determine the IC50 values for inhibition of the TNFα-TNFR1 interaction. Briefly, biotinylated TNFα was immobilized onto a NeutrAvidin-coated surface. TNFR1 conjugated with horseradish peroxidase (HRP) (0.5 nM) was added along with different concentrations of a peptide inhibitor. After washing, the amount of bound TNFR1-HRP was quantitated by ELISA. […] In agreement with the FA results, either extension at the C-terminus of β-Ala with another amino acid (C1-67 to C1-70) or side-chain modification of β-Ala (C1-71 to C1-73) decreased TNFα binding.

[1] = target: T2, Recombinant TNFα containing an N-terminal 13-aa ybbR tag (human, UniProt P01375 77-233, biotin at the ybbR tag in the ELISA assays); experiment: FA, FITC-peptide + TNFα titration
T2 construct: Expressed in E. coli; Same construct used unlabelled (FA) and biotinylated on NeutrAvidin (ELISA); also called tumor necrosis factor-alpha; human TNFα; not shown: N-terminal 13-aa ybbR tag
Protocol: (§1) The FA values were measured on a Molecular Devices Spectramax M5 spectrofluorimeter, with excitation and emission wavelengths at 485 and 525 nm, respectively. Equilibrium dissociation constants (KD) were determined by plotting the FA values as a function of TNFα concentration and fitting the data to the following equation $$Y = \frac{\left(Amin + \left(Amax \times \frac{Q_b}{Q_f} - Amin\right)\left(\frac{(L+x+K_d) - \sqrt{((L+x+K_d)^2 - 4Lx)}}{2L}\right)\right)}{\left(1 + \left(\frac{Q_b}{Q_f} - 1\right)\left(\frac{(L+x+K_d) - \sqrt{((L+x+K_d)^2 - 4Lx)}}{2L}\right)\right)}$$
(§2) where Y is the measured anisotropy at a given TNFα concentration x; L is the bicyclic peptide concentration; Qb/Qf is the correction fact for dye-protein interaction; Amax is the maximum anisotropy when all the peptides are bound to TNFα, while $Amin$ is the minimum anisotropy. […] The FA values were plotted against the competitor peptide concentration to determine the IC$50$ values.

[2] = target: T2, Recombinant TNFα containing an …; experiment: FA
Protocol: as §1, §2

[3] = target: T2, Recombinant TNFα containing an …; experiment: FA, FITC-peptide + TNFα titration; remark: listed apart in the source
Protocol: as §1, §2

[4] = inhibition of TNFα-TNFR1 interaction, unlabeled peptides
[5] = Table 5, peptides without Lys(FITC) label

T2 sequence (P01375 77-233): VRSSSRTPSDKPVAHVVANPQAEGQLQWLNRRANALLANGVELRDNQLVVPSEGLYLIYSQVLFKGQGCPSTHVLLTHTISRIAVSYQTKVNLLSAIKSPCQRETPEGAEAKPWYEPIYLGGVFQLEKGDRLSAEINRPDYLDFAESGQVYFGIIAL

Question: For `CC(=O)C[C@H](CCc1ccccc1)NC(=O)[C@@H](CC(N)=O)NC(=O)C(N)Cc1ccccc1F` (stereo partly shown) [Compound C1-74-4], which IC50 (TNFα-TNFR1 interaction; [4]) is on record?
Answer: Its IC50 is 30 nM.

Question: What about the “Improvement of IC50 over C1-74 (fold)” value (TNFα-TNFR1 interaction; relative to C1-74) of the same molecule?
Answer: Its value is ~2 fold.

Question: For `CCCC[C@@H]1NC(=O)c2cc3cc(c2)C(=O)NC[C@@H](C(=O)NCCC(=O)N[C@@H](Cc2ccccc2)C(N)=O)NC(=O)[C@H](Cc2c[nH]cn2)NC(=O)[C@@H](CCCCN)NC(=O)CNC(=O)[C@@H](Cc2c[nH]cn2)NC(=O)[C@H](Cc2c[nH]c4ccccc24)NC(=O)[C@H](CCCCNC3=O)NC(=O)[C@@H](CO)NC(=O)[C@H](Cc2ccc(O)cc2)NC1=O` [Compound C1-69] ([Nle]Y[dS]KW[dH]G[dK]H[Dap][βAla]F-NH2; linker N-4-10 via Trimesoyl), which IC50 (TNFα-TNFR1 interaction; [5]) is on record?
Answer: The IC50 was 1300 ± 1100 nM.

Question: For `CCCC[C@@H]1NC(=O)c2cc3cc(c2)C(=O)NC[C@@H](C(=O)N[C@H](CC(N)=O)C(C)C)NC(=O)[C@H](Cc2c[nH]cn2)NC(=O)[C@@H](CCCCN)NC(=O)CNC(=O)[C@@H](Cc2c[nH]cn2)NC(=O)[C@H](Cc2c[nH]c4ccccc24)NC(=O)[C@H](CCCCNC3=O)NC(=O)[C@@H](CO)NC(=O)[C@H](Cc2ccc(O)cc2)NC1=O` [Compound C1-71] ([Nle]Y[dS]KW[dH]G[dK]H[Dap][β3hV]-NH2; linker N-4-10 via Trimesoyl), which IC50 (TNFα-TNFR1 interaction; [5]) is on record?
Answer: The IC50 was 2400 ± 1300 nM.

Question: For `CCCC[C@@H]1NC(=O)c2cc3cc(c2)C(=O)NC[C@@H](C(=O)NCCC(=O)N[C@H](Cc2ccccc2)C(N)=O)NC(=O)[C@H](Cc2c[nH]cn2)NC(=O)[C@@H](CCCCN)NC(=O)CNC(=O)[C@@H](Cc2c[nH]cn2)NC(=O)[C@H](Cc2c[nH]c4ccccc24)NC(=O)[C@H](CCCCNC3=O)NC(=O)[C@@H](CO)NC(=O)[C@H](Cc2ccc(O)cc2)NC1=O` [Compound C1-70] ([Nle]Y[dS]KW[dH]G[dK]H[Dap][βAla][dF]-NH2; linker N-4-10 via Trimesoyl), which IC50 (TNFα-TNFR1 interaction; [5]) is on record?
Answer: Its IC50 is > 10000 nM.

Question: For `CC(=O)[C@@H](Cc1ccc(O)cc1)NC(=O)[C@@H](CC(=O)O)NC(=O)C(N)CC(=O)O` (stereo partly shown) [Compound C1-74-5], which IC50 (TNFα-TNFR1 interaction; [4]) is on record?
Answer: Its IC50 is 1350 ± 490 nM.

Question: With `CCCC[C@@H]1NC(=O)c2cc3cc(c2)C(=O)NC[C@@H](C(=O)NCCC(N)=O)NC(=O)[C@H](Cc2c[nH]cn2)NC(=O)[C@@H](CCCCN)NC(=O)CNC(=O)[C@@H](Cc2c[nH]cn2)NC(=O)[C@H](Cc2c[nH]c4ccccc24)NC(=O)[C@H](CCCCNC3=O)NC(=O)[C@@H](CO)NC(=O)[C@H](Cc2ccc(O)cc2)NC1=O` [Compound C1-66] ([Nle]Y[dS]KW[dH]G[dK]H[Dap][βAla]-NH2; linker N-4-10 via Trimesoyl) as the molecule, how does the IC50 (TNFα-TNFR1 interaction; [4]) read?
Answer: Its IC50 is 85 nM.

Question: How did the IC50 (TNFα-TNFR1 interaction; [5]) turn out when `CCCC[C@@H]1NC(=O)c2cc3cc(c2)C(=O)NC[C@@H](C(=O)N[C@H]2CCC[C@@H]2C(N)=O)NC(=O)[C@H](Cc2c[nH]cn2)NC(=O)[C@@H](CCCCN)NC(=O)CNC(=O)[C@@H](Cc2c[nH]cn2)NC(=O)[C@H](Cc2c[nH]c4ccccc24)NC(=O)[C@H](CCCCNC3=O)NC(=O)[C@@H](CO)NC(=O)[C@H](Cc2ccc(O)cc2)NC1=O` [Compound C1-72] ([Nle]Y[dS]KW[dH]G[dK]H[Dap]-{NH(1S,2S-2-CONH2-cPent)}; linker N-4-10 via Trimesoyl) was run?
Answer: Its IC50 is 110 ± 30 nM.

Question: How did the IC50 (TNFα-TNFR1 interaction; [5]) turn out when `CCCC[C@@H]1NC(=O)c2cc3cc(c2)C(=O)NC[C@@H](C(=O)NCCC(=O)NCCC(N)=O)NC(=O)[C@H](Cc2c[nH]cn2)NC(=O)[C@@H](CCCCN)NC(=O)CNC(=O)[C@@H](Cc2c[nH]cn2)NC(=O)[C@H](Cc2c[nH]c4ccccc24)NC(=O)[C@H](CCCCNC3=O)NC(=O)[C@@H](CO)NC(=O)[C@H](Cc2ccc(O)cc2)NC1=O` [Compound C1-67] ([Nle]Y[dS]KW[dH]G[dK]H[Dap][βAla][βAla]-NH2; linker N-4-10 via Trimesoyl) was run?
Answer: The IC50 was 1500 ± 900 nM.

Question: How did the IC50 (TNFα-TNFR1 interaction; [5]) turn out when `CCCC[C@@H]1NC(=O)c2cc3cc(c2)C(=O)NC[C@@H](C(=O)Nc2cccc(C(N)=O)c2)NC(=O)[C@H](Cc2c[nH]cn2)NC(=O)[C@@H](CCCCN)NC(=O)CNC(=O)[C@@H](Cc2c[nH]cn2)NC(=O)[C@H](Cc2c[nH]c4ccccc24)NC(=O)[C@H](CCCCNC3=O)NC(=O)[C@@H](CO)NC(=O)[C@H](Cc2ccc(O)cc2)NC1=O` [Compound C1-73] ([Nle]Y[dS]KW[dH]G[dK]H[Dap][3Abz]-NH2; linker N-4-10 via Trimesoyl) was run?
Answer: Its IC50 is 1700 ± 700 nM.

Question: For [Nle]Y[dS]KY[dF]G[dK]H[Dap]K(FITC′)-NH2 (bridge N-4-10 via trimesoyl″; not fully specified (N-terminus)) [C1-11], which Kd [1] is on record?
Answer: Its Kd is 1500 nM.

Question: And the “fold reduction in affinity against D-Ala at position-3” value [2]?
Answer: Its value is ~2 fold.

Question: What about the Kd [3] of the same molecule?
Answer: The Kd was 1500 nM.

Question: Which Kd [1] does the source give for [Nle]Y[dS]KY[dH]G[dK]H[Dap]K(FITC)-NH2 (linker N-4-10 via trimesoyl″) [C1-30] here?
Answer: Its Kd is 760 nM.

Question: And the “fold improvement in affinity against D-Phe at position-6” value [2]?
Answer: The value was ~2 fold.

Question: And the Kd [3]?
Answer: Its Kd is 760 nM.

Question: Which results are given for [Nle]Y[dS]KW[dH]V[dK]H[Dap]K(FITC)-NH2 (linker N-4-10 via trimesoyl″) [C1-46]?
Answer: Kd [1]: 880 nM; fold loss of binding against Gly-7 [2]: 3 to 6 fold

Question: With [Nle]Y[dS]KW[dH]S[dK]H[Dap]K(FITC)-NH2 (linker N-4-10 via trimesoyl″) [C1-45] as the molecule, how does the Kd [1] read?
Answer: Its Kd is 420 nM.

Question: What about the “fold effect on affinity against Gly-7” value [2] of the same molecule?
Answer: The value was 2 fold.

Question: For [Nle]Y[dS]KW[dH]G[dK]F[Dap]K(FITC)-NH2 (linker N-4-10 via trimesoyl″) [C1-50], which Kd [1] is on record?
Answer: Its Kd is 7500 nM.

Question: And the “fold reduction in affinity against His at position-9” value [2]?
Answer: The value was ~30 fold.

Question: How did the Kd [1] turn out when [Nle]Y[dS]KY[dH]A[dK]H[Dap]K(FITC)-NH2 (linker N-4-10 via trimesoyl″) [C1-44] was run?
Answer: The Kd was 320 nM.

Question: And the “fold effect on affinity against Gly-7” value [2]?
Answer: The value was 2 fold.

Question: Which results are given for [Nle]Y[dA]KY[dF]G[dK]H[Dap]K(FITC)-NH2 (linker N-4-10 via trimesoyl″) [C1-5]?
Answer: Kd [1]: 850 nM; fold better binding against C1 [2]: ~2 fold

Question: For [Nle]Y[dS]KW[dH]L[dK]H[Dap]K(FITC)-NH2 (linker N-4-10 via trimesoyl″) [C1-47], which Kd [1] is on record?
Answer: The Kd was 1700 nM.

Question: And the “fold loss of binding against Gly-7” value [2]?
Answer: Its value is 3 to 6 fold.

Question: How did the Kd [1] turn out when GY[dA]KY[dF]G[dK]H[Dap]K(FITC′)-NH2 (bridge N-4-10 via trimesoyl″; not fully specified (N-terminus)) [C1-1] was run?
Answer: The Kd was 7100 nM.

Question: What about the “fold decrease in TNFα binding against C1 (Phg at position-1)” value (from here on “fold decrease in TNFα binding against C1”) [2] of the same molecule?
Answer: Its value is ≥ 5 fold.

Question: What does the source list for SY[dA]KY[dF]G[dK]H[Dap]K(FITC)-NH2 (linker N-4-10 via trimesoyl″) [C1-6]?
Answer: Kd [1]: 6200 nM; fold decrease in TNFα binding against C1 (Phg at position-1) [2]: ≥ 5 fold

Question: How did the Kd [1] turn out when TY[dA]KY[dF]G[dK]H[Dap]K(FITC″)-NH2 (linker N-4-10 via trimesoyl) [C1-7] was run?
Answer: The Kd was 7200 nM.

Question: What about the “fold decrease in TNFα binding against C1” value [2] of the same molecule?
Answer: Its value is ≥ 5 fold.

Question: How did the Kd [1] turn out when DY[dA]KY[dF]G[dK]H[Dap]K(FITC″)-NH2 (linker N-4-10 via trimesoyl) [C1-8] was run?
Answer: The Kd was 7000 nM.

Question: What about the “fold decrease in TNFα binding against C1” value [2] of the same molecule?
Answer: Its value is ≥ 5 fold.

Question: NY[dA]KY[dF]G[dK]H[Dap]K(FITC″)-NH2 (linker N-4-10 via trimesoyl) [C1-9] was tested. Which Kd [1] did it give?
Answer: The Kd was 7900 nM.

Question: And the “fold decrease in TNFα binding against C1” value [2]?
Answer: The value was ≥ 5 fold.

Question: [Nle]Y[dS]KY[dH][Sar][dK]H[Dap]K(FITC)-NH2 (linker N-4-10 via trimesoyl″) [C1-43] was tested. Which Kd [1] did it give?
Answer: The Kd was 330 nM.

Question: What about the “fold effect on affinity against Gly-7” value [2] of the same molecule?
Answer: The value was 2 fold.
